One block for each substance: values may come before it.
Experiments:
Test in all cases: cryo-EM structure
[1] = biological target: LHC-II complex (spinach (endogenous in leaves))
[2] = biological target: Rubisco (spinach (endogenous in leaves))
[3] = biological target: chloroplast carbonic anhydrase (CA) (spinach (endogenous in leaves))
[4] = biological target: tonoplast intrinsic protein TIP1;1 (spinach (endogenous in leaves))
[5] = biological target: tonoplast intrinsic protein TIP2;1 (spinach (endogenous in leaves))

stoichiometry N [1]: 3
Substance: LHC-II complex (natural protein)

stoichiometry N [2]: 8
Substance: Rubisco (complex)

stoichiometry N [3]: 8
Substance: chloroplast carbonic anhydrase (CA) (enzyme)

stoichiometry N [4]: 4
stoichiometry N [5]: 3
Substance: tonoplast intrinsic protein TIP1;1 (natural protein)
